The labels stand for the following.
B1: HIV-1 LAI Nef ΔNΔL (residues 60–158;174–205) (domain or fragment)
chain: AQEEEEVGFPVTPQVPLRPMTYKAAVDLSHFLKEKGGLEGLIHSQRRQDILDLWIYHTQGYFPDWQNYTPGPGVRYPLTFGWCYKLVPVEPDKVEEANKDDPEREVLEWRFDSRLAFHHVARELHPEYFKN
B5: HIV-1 LAI Nef WLΔN (residues 56–205) (domain or fragment)
chain: AWLEAQEEEEVGFPVTPQVPLRPMTYKAAVDLSHFLKEKGGLEGLIHSQRRQDILDLWIYHTQGYFPDWQNYTPGPGVRYPLTFGWCYKLVPVEPDKVEEANKGENTSLLHPVSLHGMDDPEREVLEWRFDSRLAFHHVARELHPEYFKN

For test [1], the target named is p85 subunit of PI3 kinase, nSH2–iSH2–cSH2 fragment (UniProt P27986 322-724). Nature of the test: MST.
The target in test [2] is HIV-1 LAI Nef, full-length (HIV-1, LAI isolate, UniProt P03406). The test is described as follows: ITC. A general note: In ITC the heat of successive injections is recorded.
For test [3], the target named is B5. The test is described as follows: ITC.
The target in test [4] is T1, HIV-1 LAI Nef ΔN (residues 60–205) (HIV-1, LAI isolate, UniProt P03406 60-205). The test is described as follows: ITC.
In test [5] the target is B1. The test is described as follows: ITC.
For test [6], the target named is HIV-1 SF2 Nef, full-length (HIV-1, SF2 isolate, UniProt P03407). Nature of the test: ITC.
Test [7] addresses B1. Nature of the test: MST.
In test [8] the target is B5. The test is described as follows: MST.
Test [9] addresses T1, HIV-1 LAI Nef ΔN (residues 60–205). Nature of the test: MST.

Consider 15 molecules from PMC8079166 (Biochemical Journal, 2021).

In turn, B1 displayed a Kd in test [1] of 53 ± 3 µM.

B2: Nef ΔNΔL preincubated with 50 µM Fyn_(R96I) SH3 (complex)
chain 1: AQEEEEVGFPVTPQVPLRPMTYKAAVDLSHFLKEKGGLEGLIHSQRRQDILDLWIYHTQGYFPDWQNYTPGPGVRYPLTFGWCYKLVPVEPDKVEEANKDDPEREVLEWRFDSRLAFHHVARELHPEYFKN
chain 2: not shown
modifications: RED-NHS dye label
For the molecule B2, the equilibrium dissociation constant (Kd) in [1] was 96 ± 18 µM.

B3: Nef ΔNΔL preincubated with 50 µM Fyn_(R96W) SH3 (complex)
chain 1: AQEEEEVGFPVTPQVPLRPMTYKAAVDLSHFLKEKGGLEGLIHSQRRQDILDLWIYHTQGYFPDWQNYTPGPGVRYPLTFGWCYKLVPVEPDKVEEANKDDPEREVLEWRFDSRLAFHHVARELHPEYFKN
chain 2: not shown
modifications: RED-NHS dye label
Turning to B3, in test [1], binding was characterised by a dissociation constant (Kd) of 79 ± 16 µM.

B4: Nef ΔNΔL preincubated with 50 µM FynR96 SH3 (complex)
chain 1: AQEEEEVGFPVTPQVPLRPMTYKAAVDLSHFLKEKGGLEGLIHSQRRQDILDLWIYHTQGYFPDWQNYTPGPGVRYPLTFGWCYKLVPVEPDKVEEANKDDPEREVLEWRFDSRLAFHHVARELHPEYFKN
chain 2: not shown
modifications: RED-NHS dye label
In test [1], B4 gave a Kd of 47 ± 8 µM.

B5: the Kd in test [1] was 72 ± 8 µM. Compared with the last molecule, the Kd is about 1.5-fold higher.

B6: Nef WLΔN preincubated with 50 µM FynR96 SH3 (complex)
chain 1: AWLEAQEEEEVGFPVTPQVPLRPMTYKAAVDLSHFLKEKGGLEGLIHSQRRQDILDLWIYHTQGYFPDWQNYTPGPGVRYPLTFGWCYKLVPVEPDKVEEANKGENTSLLHPVSLHGMDDPEREVLEWRFDSRLAFHHVARELHPEYFKN
chain 2: not shown
modifications: RED-NHS dye label
In test [1], B6 yielded a dissociation constant Kd of 104 ± 11 µM. The Kd values of the last two molecules are within 1.5-fold of each other.

B7: Nef WLΔN preincubated with 50 µM Fyn_(R96W) SH3 (complex)
chain 1: AWLEAQEEEEVGFPVTPQVPLRPMTYKAAVDLSHFLKEKGGLEGLIHSQRRQDILDLWIYHTQGYFPDWQNYTPGPGVRYPLTFGWCYKLVPVEPDKVEEANKGENTSLLHPVSLHGMDDPEREVLEWRFDSRLAFHHVARELHPEYFKN
chain 2: not shown
modifications: RED-NHS dye label
As to B7, the Kd in [1] is 108 ± 14 µM.

B8: Nef WLΔN preincubated with 50 µM Fyn_(R96I) SH3 (complex)
chain 1: AWLEAQEEEEVGFPVTPQVPLRPMTYKAAVDLSHFLKEKGGLEGLIHSQRRQDILDLWIYHTQGYFPDWQNYTPGPGVRYPLTFGWCYKLVPVEPDKVEEANKGENTSLLHPVSLHGMDDPEREVLEWRFDSRLAFHHVARELHPEYFKN
chain 2: not shown
modifications: RED-NHS dye label
Take B8: the equilibrium dissociation constant (Kd) in test [1] was 107 ± 12 µM.

B9: Fyn SH3 domain R96I (domain or fragment)
chain: not shown
On to B9, for which the Kd amounted to 0.79 µM in test [2]; 7.55 µM in test [3]; 5.06 µM in test [4]; 3.86 µM in test [5]; 0.02 µM in [6]; 24 ± 8 µM in test [7]. For the same molecule, the dH in test [2] was -40.7 kJ/mol; in [3] it was -21.5 kJ/mol; in [4] it was -39.7 kJ/mol; in test [5], -34 kJ/mol; in test [6] it was -77.2 kJ/mol. Moreover, the “stoichiometry N” value in test [2] stood at 0.93; in [3], 1.01; in test [4] it was 0.87; in test [5], 0.97; in test [6] it was 0.98.

B10: Fyn SH3 domain, wild type (FynR96) (domain or fragment)
chain: not shown
B10: the Kd in test [2] was 58.5 µM; in test [3], 50.8 µM; in [4], 83.3 µM; in test [5], 24.3 µM; in [6], 28.7 µM. In addition, the dH in test [2] was -45.9 kJ/mol; in test [3] it was -14.2 kJ/mol; in [4], -34.3 kJ/mol; in test [5], -14 kJ/mol; in test [6] it was -59.2 kJ/mol.

B11: Full-length LAI Nef preincubated with 50 µM FynR96 SH3 (complex)
chain 1: […]
chain 2: not shown
modifications: RED-NHS dye label
B11 gave an equilibrium dissociation constant (Kd) in test [1] of 141 ± 14 µM.

B12: Nef fragment containing H1 (residues 8–26) (peptide)
peptide: SSVVGWPTVRERMRRAEPA
For B12, the dissociation constant Kd in test [8] came to 1350 ± 219 µM; in test [9], 699 ± 252 µM; in test [7] it was 303 ± 50 µM.

B13: Full-length LAI Nef preincubated with 50 µM Fyn_(R96W) SH3 (complex)
chain 1: […]
chain 2: not shown
modifications: RED-NHS dye label
B13 showed a Kd in test [1] of 161 ± 17 µM.

B14: Full-length LAI Nef preincubated with 50 µM Fyn_(R96I) SH3 (complex)
chain 1: […]
chain 2: not shown
modifications: RED-NHS dye label
On to B14, for which the dissociation constant Kd in test [1] is 135 ± 10 µM.

B15: Fyn SH3 domain R96W (domain or fragment)
chain: not shown
As to B15, the dissociation constant Kd in test [2] is 1.43 µM; in test [3] it was 1.45 µM; in test [4], 1.28 µM; in test [5], 0.78 µM; in test [6], 0.12 µM. For the same molecule, the dH in test [2] was -50 kJ/mol; in test [3], -29.3 kJ/mol; in test [4], -56.5 kJ/mol; in test [5], -46.7 kJ/mol; in test [6], -56.6 kJ/mol. Also, the “stoichiometry N” value amounted to 0.96 in test [2]; 0.94 in [3]; 0.9 in [4]; 0.98 in test [5]; 0.91 in test [6].

As usually defined, the Kd is the concentration at which binding is half-saturated. Low readings indicate higher affinity, high ones lower affinity. For orientation: stoichiometry N means the number of molecules, sites or subunits per partner or assembly.
